Data published in article PMC13006735 (Research, 2026).
Where a chain is given by its changes, count along the chain named. Numbers in names are those of the source.

B1:  (antibody, V domains shown)
VH: EVQLVESGGGLVKPGGSLRLSCAASGFTFSNAWMSWVRQAPGKGLEWVGRIKSKTDGGTIDYAAPVKGRFTISRDDSKNTVYLQMTSLKTEDTAVYYCTTYTEDMRYFDWLLRGGETFDYWGQGTLVTVSS
VL: DIRLTQSPSSLSASVGDRVTITCRASQYISTYLNWYQQKPGKAPKLLIYAAYNLQSGVPSRFSGSRFGTDFSLTISSLQPEDFATYHCQQSYSTPGRYTFGQGTKVEIK
notes: also called H27Q/S52Y/G66R-LC variant
B2:  (antibody, V domains shown)
VH: B1 VH
VL: B1 VL with Q27H, A50Y, L54R, R66G
notes: also called A50Y/S52Y/L54R-LC variant

Target: Sudan virus (SUDV) glycoprotein GP (Sudan ebolavirus, strain  for …, UniProt Q7T9D9)
Test: SPR
Details: both partners purified

Binder	Kd [nM]
B1	0.349
B2	0.248
